According to the supplement of paper PMC10567573:

B1: RAB40B (parent)
chain: YSLTTSSTHKRSSLRKVKLVRPPQ

Variants of: B1
Assay: protein stability index of a GFP-peptide fusion (GPS, HEK-293T) (PSI 1-6); higher = more stable
Conditions: c terminus: a fixed tail appended
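Further: lentivirally expressed fusions sorted by FACS into six bins by GFP to DsRed ratio, PSI derived from sequencing read proportions per bin multiplied by bin number.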

Protein stability index: each site, then its substitutions
V17: H 3.55, N 3.39, F 2.67, D 3.33, Y 2.98, K 3.47, P 3.13, E 3.5, W 2.53, M 2.75, L 2.77, S 3.3
R11: V 2.52, Y 2.51, W 1.87, E 3.33, L 2.3, P 2.75, M 2.99, D 3.4, T 3.67, S 2.77, K 3.17, I 2.46, A 3.68, C 2.59, Q 3.46, N 2.87, F 2.32, H 3.15, G 2.83
K10: S 3.02, P 2.92, H 2.68, D 3.23, G 3.21, A 3.14, T 2.43, Y 3.05, I 2.02, R 3.18, N 2.85, F 2.62, W 1.89, E 3.67, Q 2.3, L 2.81, V 2.55, M 3.3, C 2.3
K16: G 2.81, N 3.19, D 3.59, L 2.35, Y 2.9, V 2.1, T 3.03, I 1.95, W 2.14, F 2.13, P 3.06, A 2.93, Q 3.08, H 2.54, S 2.93, R 2.99, C 2.58, E 3.52, M 2.35
S13: V 3.06, H 3.18, L 2.45, F 2.12, E 3.21, C 3.01, T 2.4, Y 2.53, K 3.49, N 3.21, I 2.74, W 1.69, A 3.25, R 3.4, M 2.47, Q 3.35, D 2.58, P 3.4, G 2.86
S6: P 2.63, F 2.38, K 3.33, R 2.96, Y 2.48, N 2.77, W 2.17, Q 2.92, G 3.34, L 2.93, T 3.29, H 3.42, D 3.05, E 3.57, V 2.83, A 2.88, I 2.58, C 2.95, M 2.62
L19: Y 2.81, F 3.1, A 4.17, R 3.18, M 3.13, E 3.04, T 3.25, G 3.7, K 4.09, H 3.33, S 3.45, N 3.39, C 3.37, W 3.15, D 3.71, Q 2.33, V 3.19, P 3.63, I 2.9
T5: F 2.05, E 3.62, L 2.91, A 3.48, G 3.25, M 2.97, Y 2.53, S 3.07, D 3.4, P 3.05, Q 3.44, V 2.79, R 3.43, I 1.86, K 3.2, H 2.81, W 1.45, C 2.62, N 3.83
V20: D 3.66, C 3.25, A 3.54
T8: H 2.76, F 2.63, K 3.02, R 2.57, S 2.89, W 2.49, L 2.43, I 2.63, Q 3.26, M 2.98, N 3.4, A 2.82, E 3.51, P 3.38, V 2.53, C 2.8, D 3.32, Y 3, G 3.71
